Assay results as given in patent publication US20210145921A1, “COMPOSITION COMPRISING VEGF ANTAGONISTS AND A CATIONIC PEPTIDE AND USES THEREOF” (UCL BUSINESS LTD, priority 2017, published 2021).

Tests used:
[1] = tested on: HCE-S corneal epithelial barrier; experiment: in vitro HCE-S transwell transcytosis assay (Papp); format: in vitro ADME, human; settings: for enhancement of delivery of Lucentis across the HCE-S barrier: Papp
Description: HCE-S barrier models for transcytosis assays were prepared using an adaptation of a previously described method.^[1] HCE-S cells (5×10^4 cells/well) were seeded on transwell inserts (poly-carbonate, 3 μm pore size, 1.13 cm^2) and maintained for 7 days refreshing the medium in the apical and basal chambers every second day. After this time cells were cultured for a further 10 days at an apical air interface to encourage development of a multilayer barrier. Prior to each experiment culture medium was replaced with phenol red free DMEM and barrier integrity measured via transepithelial resistance (TER). TER values were obtained in the range 300-600 Ωcm^2 and only epithelial barriers with TERs>300 Ω·cm^2, the accepted threshold for tight epithelial barriers, were used for transcytosis experiments.
Permeation studies were conducted to determine the rate of anti-VEGF transcytosis in the presence/absence of varying concentrations of R8. Experiments were initiated by adding 1.5 ml serum- and phenol red-free DMEM to the basal chamber and 0.5 ml to the apical chamber containing 0.1 mg/mL Avastin or Lucentis in the presence of varying molar ratios of R8. After 3 h, 100 μl of medium was withdrawn from the basal chamber and the concentration of anti-VEGF in the basal chamber was determined using established and commercially available sandwich ELISA techniques (KPL Protein Detector HRP Microwell Kit, Anti-Human Cat #54-62-10 with Jackson Immuno Research AffiniPure Rabbit Anti-Human IgG capture antibody).^[1] […] The permeability coefficient (Papp) of each anti-VEGF was determined as previously described^[1] using equation 1;
where CR is the final concentration of anti-VEGF recovered from the ELISA assay, CD is the initial concentration of anti-VEGFs added to the assay, tmin is the transcytosis time (180 min), VR is the volume of the receiving chamber (1.5 ml) and A represents the filter area (1.12 cm^2).
Lucentis (+/−Steryl-R8) were applied to the Apical chamber and the concentration crossing the barrier was determined from the basolateral chamber at different timepoints using a Lucentis sandwich ELISA. Intact HCE-S barrier was confirmed by measuring transepithelial resistance (>[…]) before each assay.

HCE-S cells = experiment: AlamarBlue cell viability assay; format: cell-based, human; settings: 24 h exposure, up to 200/1 molar ratio
Description: HCE-S monolayers for uptake assays were prepared by seeding 96 well plates with 1×10^4 cells/well and maintaining for 5 days replacing the medium every other day. After this time, medium was replaced with that containing 100 μM calcein loaded PLVs in the presence or absence of 200 nM AnxA5. Cells were incubated with PLVs at 37° C. for 3 h protected from light. Epithelial monolayers were then washed three times in ice cold PBS (with calcium and magnesium) to remove free PLVs, followed by a single wash in ice cold isosmotic citrate buffer (pH 3) to remove surface bound PLVs before applying a PBS wash containing 1% Triton X-100 to solubilise membranes. Upon completion of each washing step, calcein fluorescence was measured using a 485 nm excitation and 515 nm emission with a SAFIRE micro plate reader (TECAN) HCE-S monolayers for viability assays were prepared by seeding 96 well plates with 1×10^4 cells/well and maintaining for 24 h at 37° C. in a humidified incubator with 5% CO2. […] Cells were incubated with anti-VEGF/R8 solutions for 24 h before viability of HCE-S cells in response to was assessed using the AlamarBlue (Invitrogen) cell viability assay according to manufacturers instructions. […]

[2] = dextran transcytosis assay; format: in vitro ADME
Text: The fifth experiment conducted was whether R8 affected the transport of dextrans across a membrane, FIG. 27. Dextrans are complex branched polysaccharides made of many glucose molecules. They can be composed of chains of varying lengths.

[3] = in vivo rabbit study, topical instillation, anti-VEGF in eye tissue by sandwich ELISA; design: species or system New Zealand rabbits
Description: All animal experiments were performed in compliance with the ARVO Statement for the Use of Animals in Ophthalmic and Vision Research. New Zealand rabbits received unilateral topical instillations of 0.03 mL anti-VEGF in the presence of R8 (varying molar concentrations) either as a liquid or hydrogel formulations without anaesthesia. At the specified time after application animals were euthanized before enucleation, washing (PBS) and snap-freezing and dissection of ocular tissues. Samples were weighed and cryohomogenised before the concentration of anti-VEGF per gram of eye tissue determined using established sandwich ELISA protocols.

[4] = tested on: human umbilical vein endothelial cell (HUVEC); settings: cited from earlier work
rhVEGF165 = settings: read-out: IC50, tissue factor up-regulation; cited from earlier work
[5] = human, in vivo; cited from earlier work
[6] = in vivo; cited from earlier work

N=C(N)NCCC[C@H](NC(=O)[C@H](CCCNC(=N)N)NC(=O)[C@H](CCCNC(=N)N)NC(=O)[C@H](CCCNC(=N)N)NC(=O)[C@H](CCCNC(=N)N)NC(=O)[C@H](CCCNC(=N)N)NC(=O)[C@H](CCCNC(=N)N)NC(=O)[C@@H](N)CCCNC(=N)N)C(=O)O [R8, RRRRRRRR]
transcytosis of Lucentis, peptide alone without liposomes [1]: dramatic enhancement in transcytosis
enhancement of delivery of Lucentis across the HCE-S barrier [1]: concentration dependent manner
toxicity to HCE-S cells (HCE-S cells): non-toxic
effect on transport of different sizes of dextran across a membrane [2]: made no difference

CCCCCCCCCCCCCCCCCC(=O)N[C@@H](CCCNC(=N)N)C(=O)N[C@@H](CCCNC(=N)N)C(=O)N[C@@H](CCCNC(=N)N)C(=O)N[C@@H](CCCNC(=N)N)C(=O)N[C@@H](CCCNC(=N)N)C(=O)N[C@@H](CCCNC(=N)N)C(=O)N[C@@H](CCCNC(=N)N)C(=O)N[C@@H](CCCNC(=N)N)C(=O)O [ST-R8, Stearyl-R8]
transcytosis of anti-VEGF (Lucentis) loaded liposomes [1]: significantly enhanced
enhancement of delivery of Lucentis across the HCE-S barrier [1]: concentration dependent manner

Bevacizumab [Avastin]
transport across the HCE-S barrier in the presence of R8 (ST-R8) [1]: aided the transport

Ranibizumab [Lucentis]
transport across the HCE-S barrier in the presence of R8 (ST-R8) [1]: aided the transport
free Lucentis detected in retina ([3]; 2 h after topical instillation): ~20 ng
concentration detected in plasma ([3]; free Lucentis, topical instillation, 2 h): < 0.1 ng/mL
proportion of dosed free Lucentis reaching the retina by the topical route ([3]; from dosed eye versus co-eye concentration, n=10): ~30%
Lucentis delivery to the retina ([3]; liquid formulation, 2 h, n=3): 18 ± 8 ng/g
levels of Lucentis in the vitreous and retina/choroid ([3]; rabbit, one eye dosed, 2 hours after topical application): 10 ng/g tissue
concentration giving total inhibition of proliferation [4]: ≥ 1.3 nM
IC50 ([4]; read-out: IC50, VEGF-induced proliferation): < 1 nM
IC50 (rhVEGF165): 0.31 nM
clinical Cmax predicted at steady state [5]: 1.7 ng/mL
clinical Cmax, maximal individual level [5]: 2.4 ng/mL
half-life in the eye [6]: 173 h
